This note sets out measurements from paper PMC3169180.

The target in experiment [1] is N-terminal barrel domain of OmpA (OmpA171, residues 1–171) (E. coli K12 MG1655). In words: circular dichroism kinetics. A general note: Circular dichroism is widely used to follow secondary structure.
The target of experiment [2] is T1, mature form of full-length OmpA (OmpA325) (E. coli K12 MG1655), P0A910.
T1 chain: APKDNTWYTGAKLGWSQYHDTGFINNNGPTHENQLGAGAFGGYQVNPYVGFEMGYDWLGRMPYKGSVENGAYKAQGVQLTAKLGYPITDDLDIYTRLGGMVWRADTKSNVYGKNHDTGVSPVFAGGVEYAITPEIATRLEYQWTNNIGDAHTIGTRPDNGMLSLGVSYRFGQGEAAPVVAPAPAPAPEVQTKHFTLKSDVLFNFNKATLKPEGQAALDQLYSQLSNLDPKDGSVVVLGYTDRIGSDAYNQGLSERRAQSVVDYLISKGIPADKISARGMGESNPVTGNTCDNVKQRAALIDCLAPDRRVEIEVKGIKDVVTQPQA
In words: AUC. Conditions: remark: other sources report otherwise.

In experiment [1], “N-terminal barrel domain of OmpA (OmpA171, residues 1–171) (domain or fragment)” had a critical nucleus size n* (nucleated growth polymerization model) of 2.6 molecules and an order of the self-association reaction (initial rates) of 3.2.

B1: mature form of full-length OmpA (OmpA325), P0A910 22-346 (natural protein)
chain: T1 chain
The molecule B1 showed a percent monomer (3 μM OmpA325, 450 mM urea, 30 minutes) in experiment [2] of 75%.
